Assay results reported in publication PMC6851490, “Target highlights in CASP13: Experimental target structures through the eyes of their authors” (Proteins, 2019).

Assays:
[1] = molecular target: Pentafunctional AROM complex from Chaetomium thermophilum (Chaetomium thermophilum); test: crystal structure; CtAROM, X-ray, 3.00 Å, no PDB id
[2] = molecular target: Pentafunctional AROM complex from Chaetomium thermophilum (Chaetomium thermophilum); test: not stated; CtAROM before crystallisation; homodimer of about 340 kDa; method not given
[3] = molecular target: Bd2924, putative acyl-CoA dehydrogenase (ACAD) from B. bacteriovorus (B. bacteriovorus); test: SEC; Bd2924 in solution, size exclusion chromatography
[4] = molecular target: Bd2924, putative acyl-CoA dehydrogenase (ACAD) from B. bacteriovorus (B. bacteriovorus); test: crystal structure; Bd2924 with FAD, with and without C10-CoA, PDB 6SD8 and 6SDA
[5] = molecular target: CdiI^Kp342 immunity protein (Klebsiella pneumoniae 342); test: crystal structure; CdiA-CT•CdiI complex from K. pneumoniae 342, PDB 6CP9, 2.55 Å
[6] = molecular target: gp37 (distal part) of the Salmonella phage S16 long tail fiber (Salmonella phage S16); test: crystal structure; distal part of gp37 connected to gp38, phage S16, PDB 6F45, 1.70 Å
[7] = molecular target: T1, Bd2924 (Bdellovibrio bacteriovorus, UniProt Q6MJ59); test: X-ray crystal structure, […] Å; format: binding; conditions: without C10-CoA; one FAD per monomer at the dimer interface
T1 construct: crystal structure residues 3 to 505; homo-tetramer (dimer of dimers)
T1 sequence (Q6MJ59 3-505): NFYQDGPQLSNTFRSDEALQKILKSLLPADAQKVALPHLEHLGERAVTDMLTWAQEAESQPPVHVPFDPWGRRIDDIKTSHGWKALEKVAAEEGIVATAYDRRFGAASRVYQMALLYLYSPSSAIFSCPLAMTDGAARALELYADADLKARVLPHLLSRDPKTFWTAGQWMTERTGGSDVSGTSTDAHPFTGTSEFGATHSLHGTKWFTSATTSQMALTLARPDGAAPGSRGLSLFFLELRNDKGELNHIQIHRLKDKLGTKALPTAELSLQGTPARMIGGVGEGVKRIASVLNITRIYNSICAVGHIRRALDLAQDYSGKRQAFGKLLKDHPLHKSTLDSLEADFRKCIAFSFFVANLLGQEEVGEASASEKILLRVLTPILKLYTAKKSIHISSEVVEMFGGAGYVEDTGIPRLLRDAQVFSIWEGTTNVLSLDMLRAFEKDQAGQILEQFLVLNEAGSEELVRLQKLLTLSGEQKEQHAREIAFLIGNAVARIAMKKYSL

[8] = molecular target: Afp7, tube initiator of the antifeeding prophage (AFP) (Serratia entomophila); test: cryo-EM structure; needle of the AFP particle, threefold symmetric, 3.4 Å, PDB 6RBK
[9] = molecular target: Afp16, cap protein of the antifeeding prophage (AFP) (Serratia entomophila); test: cryo-EM structure; apical end cap of the AFP particle in the extended state, sixfold symmetric, 3.3 Å, PDB 6RAP
[10] = molecular target: Afp8, needle protein of the antifeeding prophage (AFP) (Serratia entomophila); test: cryo-EM structure; needle of the AFP particle, threefold symmetric, 3.4 Å, PDB 6RBK
[11] = molecular target: the molecule itself; test: crystal structure; recombinant AxlA with cleaved xyloglucan oligosaccharide, PDB 6DRU, 2.7 Å; quaternary assembly examined with EPPIC
[12] = molecular target: the molecule itself; test: crystal structure; MAJIN-TERB2 core complex, PDB 6GNX, X-ray, 2.90 Å

Molecule: Pentafunctional AROM complex from Chaetomium thermophilum (enzyme)
- stoichiometry N [1]: 2
- stoichiometry N [2]: 2

Molecule: Bd2924, putative acyl-CoA dehydrogenase (ACAD) from B. bacteriovorus (enzyme)
- stoichiometry N [3]: 4
- stoichiometry N [4]: 4

Molecule: CdiI^Kp342 immunity protein (natural protein)
- stoichiometry N [5]: 2

Molecule: gp37 (distal part) of the Salmonella phage S16 long tail fiber (domain or fragment)
- stoichiometry N [6]: 3

Molecule: Cc1cc2nc3c(=O)[nH]c(=O)nc-3n(C[C@H](O)[C@H](O)[C@H](O)COP(=O)(O)OP(=O)(O)OC[C@H]3O[C@@H](n4cnc5c(N)ncnc54)[C@H](O)[C@@H]3O)c2cc1C [FAD]
- X-ray crystal structure, 1.51 Å [7]: A single FAD molecule binds per monomer in a crevice located at the dimer interface

Molecule: Afp7, tube initiator of the antifeeding prophage (AFP) (natural protein)
- stoichiometry N [8]: 6

Molecule: Afp16, cap protein of the antifeeding prophage (AFP) (natural protein)
- stoichiometry N [9]: 6

Molecule: Afp8, needle protein of the antifeeding prophage (AFP) (natural protein)
- stoichiometry N [10]: 3

B1: α-xylosidase from Aspergillus niger (AxlA), glycoside hydrolase family 31 (enzyme, UniProt G3XMN9 19-736, looked up)
chain: TYFAPNSTGLRIQHGFETILIQPFGYDGFRVRAWPFRPPSGNEISFIYDPPIEGYEDTAHGMSYDTATTGTEPRTLRNGNIILRTTGWGGTTAGYRLSFYRVNDDGSETLLTNEYAPLKSLNPRYYYWPGPGAEFSAEFSFSATPDEQIYGTGTQQDHMINKKGSVIDMVNFNSYIPTPVFMSNKGYAFIWNMPAEGRMEFGTLRTRFTAASTTLVDYVIVAAQPGDYDTLQQRISALTGRAPAPPDFSLGYIQSKLRYENQTEVELLAQNFHDRNIPVSMIVIDYQSWAHQGDWALDPRLWPNVAQMSARVKNLTGAEMMASLWPSVADDSVNYAALQANGLLSATRDGPGTTDSWNGSYIRNYDSTNPSARKFLWSMLKKNYYDKGIKNFWIDQADGGALGEAYENNGQSTYIESIPFTLPNVNYAAGTQLSVGKLYPWAHQQAIEEGFRNATDTKEGSACDHVSLSRSGYIGSQRFCSMIWSGDTTSVWDTLAVQVASGLSAAATGWGWWTVDAGGFEVDSTVWWSGNIDTPEYRELYVRWLAWTTFLPFMRTHGSRTCYFQDAYTCANEPWSYGASNTPIIVSYIHLRYQLGAYLKSIFNQFHLTGRSIMRPLYMDFEKTDPKISQLVSSNSNYTTQQYMFGPRLLVSPVTLPNVTEWPVYLPQTGQNNTKPWTYWWTNETYAGGQVVKVPAPLQHIPVFHLGSREELLSGNVF
notes: AxlA, Aspergillus niger, UniProt G3XMN9; also called T1009; source: recombinant
- stoichiometry N [11]: 2

B2: MAJIN (core of the human MAJIN-TERB2 complex) (domain or fragment)
chain: GSMSLKPFTYPFPETRFLHAGPNVYKFKIRYGKSIRGEEIENKEVITQELEDSVRVVLGNLDNLQPFATEHFIVFPYKSKWERVSHLKFKHGEIILIPYPFVFTLYVEMKWFHE
notes: MAJIN, human, the part in the MAJIN-TERB2 core complex; also called T0980s1; H0980 subunit A
- stoichiometry N [12]: 2
